# Reference: a protein production outcome set (Wang et al. 2014)
# Assay: label from the status in PepcDB records
# 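Further: failed if final PepcDB status was selected cloned or expressed and not failed if soluble or beyond.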
row,Sequence,protein production
1,MQLEHILRSYARYAPVYDHTFGWLLNFRGRSLAAHLTNRRPGRILEVGVGTGISLPFYRKEHQVHGIDISPHMLERARRRVHSKNLDHVVRLEIMDAREMAFPDDYFDAVVAAYVMSVVPEPQRVLREIERVCKAGGDVIIVNHFAADKKGTRRHFEALLSPLSHKLGWRPDMPIDEILAHTSLHEVRRQTLPPMGLFTLLHLKKASPDFADPARP,failed
2,MQLESLYQFLYSVVMSYLVSLKYVSFVLISVILVFRKIIRTVKGGRFRRYSIFIPPILYILFSIAVSYGTSLLGIVLSLIAFVFGIYISFHTTRSIVFFSKNNILYYKRPGWVVAIWSLAFLTRLALILFFPSFNGDLFTVLLFLASGLIIGESFWIVRKNREILSTVRMPKIHL,failed
3,MQLIGDTPITYRRYSMSSSQNALVLIARILLSFIFIYSGFGKLTDPAGTAGMIAGAGMPAATALAYLAGLFELVAGLAILAGFQTKIAAWALAVFCVFTGLVFHSGTVAVPGWPEPALGWINTLNGIMMMKNITLAGAYILLATFGAGAYSVDAKRGFVAARA,failed
4,MQLQTEVKKQPSKRKFKMPDAYVLLFFIALLCAIATYFVPAGEFKRVTNRTVTTTIPGSYHSVPQSPVGFVSFFTAIEKGMTLAAPIIFLILFTGGAIAILEKTGALDGLIYHVINKFRNQQFLFICIVAALFSILGTTGIIVNSVIGFIPIGIIVARTLKWDAIVGVAIIYLGTYAGFNATILSPSPLGISQKIAELPMFSGIGLRTAIYLSFLLATILYINWYVKRLKKSNKGSILGDNWFPSNALSSGKEAQKTEVPWTIRHKLILLVSALSLITFLIGAFRLHWTDAEMTATFIFIAITAGIIGGMKANDIASTFLAGCQNLIYGALIVGMARCISVILEQGKLLDTIVNQLAQSLEGQSPVFGVIGMYVSSAALHFLISSGTGESVIFIPILAPLADFMHITRQVTVQAVMLGEGVVNCLNPTSGVLMGVLAASGISYGKWIRFMAPLAFIWFIIGLIFLIVGVNIEWGPY,failed
5,MQLTSENYYSQEANKEYMSVSGYKDFAGTYGKMPCEFYGMEKLNGRWEDEKSTALLVGSYVDSYFEGSLDQFKKDNPEIFTQKGELKANFKQAEEIIARIERDEYFMKYMSGQKQVIMTGELFGAKWKIKMDSYIPGVAIVDLKVMASITDLKWVKDIGYLDFVRYWGYDIQGAVYQEIVRQNTGEKLPFFIAGATKQTEPDIRIIHVTDNYLQEALHMVEMNMPRILRVKNGEVEPDRCELCDCCRHNRVLKKPISIMDLTAGI,not failed
6,MQMSEKFKQIRARLRLPVLVAPMLRISGPALVAASCSNGVIGSFPTVNARTPDQLDRWIDEIKQAVSAAGAYDAPYCANILARSDPDKLQADLKILIKHKVEIVLVSTGAPEKYVKPLQDIGCFVIADVASIRHARKALQQGVDGLALLTAGAGGQTGWANGFAFVRAIRDFYDGPLLLAGGVSDGQALWAARTLGCDLGLMGTRFIGTQECDASDGYKAMLVDSSIDDVVLTRGISGIDANFLRPSIIACGLDPQELVAPVSPERAREMFSSYADGMRGPKRWVDLWSAGHTVSGVKVVQSVSEVVDQLAVEYTRAQRATRAPLADADDPAI,failed
7,MQNIAVHEASTLMRYISNAIGSIRDPQELFRTVTDKLRLVFEFDSAFIITLDRDRRFINVVFEMVRFDLPDTIQRKKRPVAGSWIESHLGDEGVSVVAIEGEMDRYPADFPVPRMLYDLGMRQVVLSPLRSGGKVIGFLNFVSREQKQWKESDKELLSTLSSPVAVALSSALAYEELRQREA,failed
8,MQNNKTKLLDEVATYYAEKLAEHGDTPRGVDWNGEESQTIRFEQLCKVIDPKKMPGFSLNDLGCGYGALLDYLRDKYAACIYLGVDVSHEMIKAARQRHTAANQARFITSTEPDQVADYGVASGIFNVRLERTDAEWFDYLLGTLDVLNRTSSLGFAFNCLTSYSDEDKKRDYLYYADPCRLFDLCKRRYSRQVALLHDYGLYEFTILIRKALEHHHHHH,failed
9,MQPDTQEIVVDEVFPHAPETIWKTLTTAELMGRWLMMPAGFEPIEGKRFTYQTTPAGDWDGTIHCQVLEVKPNERLTYAWKGGHAGNTGYGSPLDTVVTFILSRAGNGTRLRLVHSGFVLPKNETAYRKMGEGWKKVVKNIGALAGGEDLEHHHHHH,failed
10,MQPIELAELLTSQAAVLTSLVVIGLILCFIGYKIFRVYSAVIGLFIGQLVGIYITINYYENALIVILASAIVGALLFALIDELGLIVTGAAFGYFVGVYLLPEYQVYAFVLAALFALINLFIEKPLTVLITSVIGASAIALAVHMGITGTHIYDILNDPKKVFDAIFSNAYFDLLWFTLVLTGIITQYVTYKEEREEEE,failed
11,MQPISILFLGIDDNDGRRKKGQDAEHSRSDAMILTTFNQSKHQIRMLSIPRDTISYIPKVGYYDKITHAHAYGGPIAAMDSVEATMNVPVDYYVRVNMKAFVEAVNELGGIYYDVPYDLNEPNTDDTGKIKIKKGYQKLNGDEALAVARTRHHDSDLKRGQRQMELIKILFQKAQEVDSIDKLDNVIQIVGKNAKHNLTNSEIKALAKMYLTNDVEIKTAQLKGKDDMLNGIYYYHPSVESIQKYANLLRKDLELSPINDKNDFLDQRVINHYGSLIPLTPLDSSLLRLEHHHHHH,not failed
12,MQPTGNQIQQNQQQQQQLIMRVPKQEVSVSGAARRYVQQAPPNRPPRQNHQNGAIGGKKSSVTIQEVPNNAYLETLNKSGNNKVDDDKLPVFLIKLWNIVEDPNLQSIVHWDDSGASFHISDPYLFGRNVLPHFFKHNNMNSMVRQLNMYGFRKMTPLSQGGLTRTESDQDHLEFSHPCFVQGRPELLSQIKRK,not failed
13,MQPTGNQIQQNQQQQQQLIMRVPKQEVSVSGAARRYVQQAPPNRPPRQNHQNGAIGGKKSSVTIQEVPNNAYLETLNKSGNNKVDDDKLPVFLIKLWNIVEDPNLQSIVHWDDSGASFHISDPYLFGRNVLPHFFKHNNMNSMVRQLNMYGFRKMTPLSQGGLTRTESDQDHLEFSHPCFVQGRPELLSQIKRKQSARTVEDKQVNEQTQQNLEVVMAEMRAMREKAKNMEDKMNKLTKENRDMWTQMGSMRQQHARQQQYFKKLLHFLVSVMQPG,failed
14,MQQKDAVPDTAKKLKAPLTGLKTEQKVTERRPVAVVVNNHPKARPQSGLSKADIVIEALAEGQITRFLAIFQSQMPETVGPVRSAREYFVTLSNGFDSIFVHHGWSPGAKKQLESGAADYMNGLDFDGSLFWRADFSKPPHNSYTSYDYIKKAAEQKGYKLKQETNPLLFQTSDAKPANESYNVRVDYGTNNVTNLVEYNYDKKAEFYTRSSDGVITTDRETGKPVAMQNIFIVEASHHIIDQDGRRDIDLESGGKGLLFQHGNVIETDWKQVNGRIVPVKDGKWLPFVPGKTWINIVPDLDAASISKGEGVLEHHHHHH,not failed
15,MQQLQNVIETAFERRADITPANVDTVTREAITHVIDLLDTGALRVAEKIDGQWVTHQWLKKAVLLSFRINDNQVMEGAETRYYDKVPMKFAGYDEARFQREGFRVVPPATVRKGAFIARNTVLMPSYVNIGAFVDEGTMVDTWATVGSCAQIGKNVHLSGGVGIGGVLEPLQANPTIIEDNCFVGARSEVVEGVIVEEGSVISMGVFIGQSTRIYDRETGEVHYGRVPAGSVVVSGNLPSKDGSYSLYCAVIVKKVDAKTRSKVGINELLRTID,not failed
16,MQQYAPTIQRALLFGLLIILLLLGFHILKYFIVPVVWAAIIAYMTWPIYIGIQRFCGENRPNLSATLMISLIILVIGIPLTFAVFMLQHEGRNLFIELQQQIFSGHLSAPDFIRELPLVGNEITRILNEINTNPSNLTQNLSLWIQSHMGYGRFVLSEISKNLVKLCFALLSLFFFYRDGHTILNQVSKALEMVIGPRIHHYMDTISETTRAVVYGVGLTAVAQAILAGLSYFVAGVPNPMVLTIVTFLLALIPFGTPLAYTSVALWLFSQGQMMGAIGVMLWGVCIVSTSDNVIRPLVISGATQIPFLLIMFGVLGGLASFGLVGLFIGPVILAILLAIWREWLHENIEPEPVPKATLIYDDLDDQTKL,failed
17,MQRAAVFDVDGTLVDTNHLHVTTWWEAFRQAGHRVPMHAVHRAVGLASGDLVARLLGEDRDKEQDAELSAAHKALYGQYFDRLPALPGAGDLLRRLAADGWTVVLATSAGGSELGALRRAIDADDAIEATASADDVDAGKPAPEPVEHALELAGVPAERAVFVGDTVWDMRAGSRAGVRCVGVLCGGLPRADLEEAGAEAVYADPADLLASLRGSPLA,failed
18,MQRANREHLEIISLEEISMLVSSDFDLPEVLQHVTAKVATQLKVSVCNIYLREGDEVVLAATHGFDPAFIGKIRIKIGDGITGSVARDGQYISLSRASQDPRYRYFPELQEEKYNSMLSFPIGDKKEVYGVINLNTTSIRSFHEDEIYFVSIIANLILTAIKLRQQVASSRKAAEASA,not failed
19,MQRDVSSCNTYNYGDALYWDARYVQDALSFDWYQCYSSLRPFVRSFVSTSSRVLMVGCGNSLMSEDMVKDGYEDIMNVDISSVAIEMMQTKYASVPQLKYMQMDVRDMSYFEDDSFDTIIDKGTLDSLMCGSDALLSASRMLGEVSRLIKPGGTYFLITYGDPKVRMPHLTRSAYNWKISLYIIPRPGFKRPESCSSSAKSCMEAIPITSEGMLPHDYVLEDPDSHFIYICKKKDEDEEAQLPSYPLMEDVL,failed
20,MQREKVDVLVIGAGPAGTVAASLVNKSGFKVKIVEKQKFPRFVIGESLLPRCMEHLDEAGFLDAVKAQGFQQKFGAKFVRGKEIADFNFSDQFSNGWNWTWQVPRGNFDKTLADEAARQGVDVEYEVGVTDIKFFGTDSVTTIEDINGNKREIEARFIIDASGYGRVIPRMFGLDKPSGFESRRTLFTHIKDVKRPVAAEMEGNRITAVVHKPKVWIWVIPFSNGNTSVGFVGEPSYFDEYTGTPEERMRAMIANEGHIAERFKSEEFLFEPRTIEGYAISASKLYGDGFVLTGNATEFLDPIFSSGATFAMESGSKGGKLAVQFLKGEEVNWEKDFVEHMMQGIDTFRSFVTGWYDGTLHAVFFAKNPDPDHKRMICSVLAGYVWDKNNPFVKKHNTILKTLAKVIQMGEEALEHHHHHH,not failed
21,MQRNLSHIISQATSAPLLLEPAYARVFFCALGRESGINSLHIPGNNESLDQSDMALVTGDFMATGKPQARFYQVVNGIAVLPVTGTLVHKLGGMRPFSGMTGYDGVTARLQQAVSDPEVKGILLDIDSPGGQAAGAFDCADMIYRMREQKPVWALANETACSAAMLLAAACSHRLVTQTSRMGSIGVVMAHTSYAEKLKQEGIDITLIYSGAHKADLTPSQKLPESVYADYQQRMDEARKMFAEKVARYTGLSVDAVMATEAAVYDGQAIITTGLADGMVNAADAIGVMAEAINSNKTGGTMPELSAADAVTQENQRVMGILGCPEARGHEALAQMLAGQPGMSVAQAKSILAAAAPADTTSTADRILALEEAGGRETLAQTLAAMPEMTVEQARTILAASPIAAATSLHDAVMALDEAKGREELAEKLAVMPGMTTDQARDLLAAAPDKSGNAGLSMNNAFDAFMQSHSPGPISGGKGHSNDTETTLLMSIPGTSAT,failed
22,MQRTGELPAEHVPVILESSGAGDFHLIDSGNGLKLEQYGDYRVVRPEAQALWRPLVPDRVWQNADAIFTGDTDEDGMGRWRFPKEALGETWPLSLLGVEFLGRFTAFRHVGVFPEQIVHWEWLKNAVETADRPLKVLNLFGYTGVASLVAAAAGAEVTHVDASKKAIGWAKENQVLAGLEQAPIRWICEDAMKFIQREERRGSTYDIILTDPPKFGRGTHGEVWQLFDHLPLMLDICREILSPKALGLVLTAYSIRASFYSMHELMRETMRGAGGVVASGELVIREAGLDGKTPGRVLSTSLFSRWEPK,not failed
23,MQRTLGEIMKIYFATGNPNKIKEANIILKDLKDVEIEQIKISYPEIQGTLEEVAEFGAKWVYNILKKPVIVEDSGFFVEALNGFPGTYSKFVQETIGNEGILKLLEGKDNRNAYFKTVIGYCDENGVRLFKGIVKGRVSEEIRSKGYGFAYDSIFIPEEEERTFAEMTTEEKSQISHRKKAFEEFKKFLLDRI,not failed
